According to the DeepSol protein solubility set:

Assay: soluble on expression in E. coli; label from the status in PepcDB or PDB records

Sequence: MLTRVPVLILAVIVMLALCQEPEKPEKRPALLSRYGRAVLPRYGKRSGNLMESSQNSLTEESSDVVCQLIDGKYICLPVDAGFLGEVNGSIKQNSKTKCPAFFKNVSFSLFFRAFYLTVPACTSKKNVLLTSTTSTINHQKLEPATTLSPIRQRRRCLFQIDFAYLTVCPSKCQEGTDTGKVADYLLSLGCSDMDVIEREMKRVCCPE
- soluble on expression in E. coli: not soluble

Sequence: LGGVFKKAGSKGLKGVRLVISDAHEGLKAAIKKILTGSAWQRCRVHFMRNVLSQVPKHYQGMVSSIIRTIFAQNDQESAREQLRHVVDELKNRFPKAMKILEEAEEEILAYMAFPREHWAQIHSTNPLERLNREIRRRTDVVCIFPNREAVIRLVGAMLMEQNDEWKVGRRYFSLESMSKITSINEFTLTPVALLHK
- soluble on expression in E. coli: soluble

Sequence: MGHHHHHHSHMYFFSKHPEASIQAVFSDAQMHIWALEGLSHLVAASFTEDRFGVVQTTLPAILNTLLTLQEAVDKYFKLPHASSKPPRISGSLVDTSYKTLRFAFRASLKTAIYRITTTFGEHLNAVQASAEHQKRLQQFLEFKE
- soluble on expression in E. coli: soluble

Sequence: MSLLRFSAVSRHHRGASIDPMTFSEATTPDALTPDAHTPRLLTCDVLYTGMGGAQSPGGVVVVGETVAAAGHPDELRRQYPHAAEERAGAVIAPPPVNAHTHLDMSAYEFQALPYFQWIPEVVIRGRHLRGVAAAQAGADTLTRLGAGGVGDIVWAPEVMDALLAREDLSGTLYFEVLNPFPDKADEVFAAARTHLERWRRLERPGLRLGLSPHTPFTVSHRLMRLLSDYAAGEGLPLQIHVAEHPTELEMFRTGGGPLWDNRMPALYPHTLAEVIGREPGPDLTPVRYLDELGVLAARPTLVHMVNVTPDDIARVARAGCAVVTCPRSNHHLECGTFDWPAFAAAGVEVALGTDSVASGETLNVREEVTFARQLYPGLDPRVLVRAAVKGGQRVVGGRTPFLRRGETWQEGFRWELSRDLEGHHHHHH
- soluble on expression in E. coli: soluble

Sequence: LNSPMITIVGTRTMTNYGKKILEEFVPKIIDSGIAVVSGLAKGIDAYAHQLALEKQGTAIAVIGNGTNISYPAENQSIQKRIISDGLLLSEYFPKSRPKQYHFPARNRILAGLTSATLVVEAKERSGSLITAAYATQENRNVLAIPGDLNRNNSNGTNQLIADGAKAVLKIDDILNE
- soluble on expression in E. coli: not soluble

Sequence: MGSDKIHHHHHHMAEERVEPKPIDLGEYKFGFHDDVEPVLSTGKGLNEGVIRELSAAKGEPEWMLEFRLKSYETFKKMPMQTWGADLSEIDFDDLIYYQKPSDKPARSWDDVPEKIKETFERIGIPEAERAYLAGASAQYESEVVYHNMKEEFQKLGIIFTDTDSALKEYPDLFKQYFAKLVPPTDNKLAALNSAVWSGGTFIYVPKGVKVDIPLQTYFRINNENIGQFERTLIIVDEGASVYYVEGCTAPTYSSNSLHAAIVEIFALDGAYMRYTTIQNWSDNVYNLVTKRAKAQKDATVEWIDGNLGAKTTMKYPSVYLDGEGARGTMLSIAFANAGQHQDTGAKMIHNAPHTSSSIVSKSIAKGGGKVDYRGQVTFNKNSKKSVSHIECDTIIMDDLSASDTIPFNEIHNSQVALEHEAKVSKISEEQLYYLMSRGLSESEATEMIVMGFVEPFTKELPMEYAVELNRLISYEMEGSVG
- soluble on expression in E. coli: not soluble

Sequence: MGACWSDNPKKVLEMLSPMNIIAITRSIPENTPNSWFIYWLTKVEEGEVRENIYAISPTKLEILPDLVKKALKLGYDGVYIDGIEALVIENGFKSVAKFLLHIKDIVLAENKFIILTLDPRALKEEEIKIIEKEFKKLELSLEHHHHHH
- soluble on expression in E. coli: not soluble

Sequence: MGSDKIHHHHHHMFDTLASLGRDLQARETLNACLDRVFRDVCAQGFQSLVYDYAPVPLSMEGALITPSVFLQRNAPDDMHNVWCEHGYYQNDPVQQRATRRTTPFVWSYRTEGRTEGRTEGVEYVGDQHRQVTRYLCDSDMGTGVTVPLHLPGGAFATFSAAVNATQAEAPRLAEAQLPPFLLLAHAFQARAQELLDPQERRCHHIALTRRERECLQYSAKGMTAKSIAATLNRSTATVNLHLNSAARKLGARNRVEAVVRGMHYRLLEL
- soluble on expression in E. coli: not soluble

Sequence: MTTLQEAYLAFKSAQIIDLTHQINENSPHFPLLPALEKKDLFTLKDGFHIQQFTVVGQYGTHIDAPIHFVEGGAWLDELPLEDLLLPMYVIDKSQAVADNPNYELSKADILAFEEKYGQIEEGAFVAFRSDWSKRWPSQEEFRNLDTAGAQQTPGWSHEALEFLIHERQVKAVGHETFDTDSGQAVAENGKLVEEYYLLDQGIYQLEVLNNLNLLPATGSFISIAYPHWEKATGSPVRAIAYIAQELEHHHHHH
- soluble on expression in E. coli: soluble

Sequence: MAHHHHHHMKKSGKGRIKLKIQINTEEEENKENIIYENKNKKRKGSDISDDNDESIEKFKDLDNSYASDRKQKEDNDLEKKIISIISQLTKITCICEDKKNNINNLENEKICKKLIKQMYKYEKYLLQFSNYINENNNHNLDDITFPNGLIKAVDNYINPNVWIYQYLLLETKKQNDSYRNLIQNISTFDSTLKHKILNNDSNHLVNPVYPPLDENLLNSLNNTQQNYYKNVHIPKELSHYYLKSRNKTKED
- soluble on expression in E. coli: not soluble

Sequence: SLLSETSTALGLQELSNITMPVIFNEPLSFLQRLTEYMEHTYLIHKASSLSDPVERMQCVAAFAVSAVASQWERTGKPFNPLLGETYELVRDDLGFRLISEQVSHHPPISAFHAEGLNNDFIFHGSIYPKLKFWGKSVEAEPKGTITLELLDHNEAYTWTNPTCCVHNIIVGKLWIEQYGNVEIINHKTGDKCVLNFKPCGLFGKELHKVEGYIQDKSKKKLCALYGKWTECLYSVDPATFDAYKKNDKKNTEEKKNSKQTSSSEESDEMPVPDSESVFIIPGSVLLWRIAPRPPNSAQMYNFTSFAMVLNEVDKEMESVIPKTDCRLRPDIRAMENGEIDLASEEKKRLEEKQRAARKNRSKSEEDWKTRWFHQGPNPYSGAQDWIYSGSYWDRNYFNLPDIY
- soluble on expression in E. coli: soluble

Sequence: MGSDKIHHHHHHMMQLLVTGATGFVGKTLCSALRRQSFPVKAIGRAGTIRADALGDQVASIDGQTDWSLILDGINAVIHLAARVHVMREQLADPLAAYRETNVEGTLNLARQAAKAGVKRFVFISSIKVNGEQTLPGKPFTAYDVPAPEDAYGISKFEAEQGLLALARETGMDVVVIRPPLVYGPGVKGNFASMMKLVKSGIPLPLGAIHNQRSLVAIDNLVNLIVTCIDHPAAANQVFLVSDGEDLSTSDLLRRLAKAAGVSSRLMPVSARWLEMGLRMCGKRLIAQRLLGSLQVDISKTRELLGWVPPISVDEGLKRCFSTKG
- soluble on expression in E. coli: not soluble

Sequence: MAHHHHHHMTLGPTTRVTVNVTGTVTVPLHLNALESLDDAPLQEEIMREAVRLSLAEQLGGFDNFTVTSARKGGNHVCEARLDVGDLCSIIADVKNAYEHGERRLRELQQLITAIREQLKESGREGGSEDEDITVPGIVKVVSDMVEDALRGPGESSLSAAIREVSNDKSWLEEVPVGDRSGGAASKSDEDSPSGVGYTRLPDSGEDSNGSERQLE
- soluble on expression in E. coli: soluble

Sequence: LTFSLNFATSSKDSYGTGWLIDWKGDENKPSNTDPFLIYLATNLHVVDALRNPQDYEPYNKDSNGQDYGNRDITHFFALGKYTD
- soluble on expression in E. coli: not soluble

Sequence: MDRVDVVADLNDPLSCFPDDSVIEIYAHHVLEHVRNFIQLMQEVHRVCMRDSTVTIVVPHYSNQLAYSDPTHVRFFGLYTMCYFVERVFQPFKRKVPDFYIKEKFLLCEVVYDFEPKNTFLGRLFTRRVQLFINANPKRQEFYERYLCRFFPVASVRYVLSPVKLEHHHHHH
- soluble on expression in E. coli: soluble

Sequence: GMTNTTYVQEYHAIVEVLSKYNEGGKKADSTIMRPAFSSQATIFGVDVDNKLTGGPIQGLFDVIDNVFHPSPEAKAAIARIDIVGTAASARIDTDDISGFRFTDFFNLLKVEGKWTVVSKIYHTHPSA
- soluble on expression in E. coli: soluble

Sequence: MGSDKIHHHHHHMSRIENQFTVQFWGVRGSIPSPGPHTVRYGGNTPCISMQAGDKRLVFDAGTGLHVLGQSWLRQMPLEGHIFFTHSHWDHMQGFPFFTPGFVKGNDFHIYGAIAPDGSTIEQRLNDQMLHPNFPVPLQIMQANLKFYDIRPGQPIHIDDVTVETAPLNHPGEAVGYRVNWRGGAVAYITDTEHFPDRLDDNVLWLARNADILVYDSTYTDEEYHSPKTPKIGWGHSTWQEAVKVAQAANVKTLVIYHHDPAHNDDFLDCVGQQASEKFPGAIMAREGMVLQIPTSVALSESFPVSKFST
- soluble on expression in E. coli: not soluble

Sequence: MDFSCGAASIATLLNNFYGRHYSEAEILDKMDKTQMRASFDDMQRIMPELGFEAQGYALPFEQLVQLKIPVIVYLKYRKNNHFSVLNGINGETVLLADPSLGHVSMSKSQFLSAWKTRDGEMEGKILAIVPKNTDFVRNQMFFNKNPVRQTRFTVEQIQMRQKR
- soluble on expression in E. coli: not soluble

Sequence: MGLFDRIKRVVSANLNDLVNKAEDPEKMLEQAILEMQEDLVQLRQGVAQAIAAQKRTEKQYSDAQNEINKWQRNAQLALQKGDENLARQALERKKTYTETGTALKTSLDQQSTQVETLKRNLIQLESKISEAKTKKEMLKARITTAKAQEQLEGMVRGMNSSSAMAAFERMEEKVLMQEARAQSAAELAGADLETQFARLESGSDVDDELAALKASLAPAPEQNLLPPQQQEQQSTAPKSKEVVDSELDALRKQLDQL
- soluble on expression in E. coli: not soluble

Sequence: MERKMATHFARGILTEGHLISVRLPSQCHQEARNIPPHRQSRFLASRGLLAELMFMLYGIGELPEIVTLPKGKPVFSDKNLPSFSISYAGNMVGVALTTEGECGLDMELQRATRGFHSPHAPDNHTFSSNESLWISKQNDPNEARAQLITLRRSVLKLTGDVLNDDPRDLQLLPIAGRLKCAHVNHVEALCDAEDVLVWSVAVTPTIEKLSVWELDGKHGWKSLPDIHSRANNPTSRMMRFAQLSTVKAFSPN
- soluble on expression in E. coli: not soluble

Sequence: MEVLVIAPRICVNVIRTLPIGLPVGVEKRLRAFDPDVIHLASPYAFAARAAFIAQKMAVPCVAVYQTDVAAYQQHYHLTWLKNLEHHHHHH
- soluble on expression in E. coli: not soluble

Sequence: GHMHTPFIVALDFPSKQEVERFLRPFAGTPLFVKVGMELYYQEGPAIVAFLKEQGHAVFLDLKLHDIPNTVKQAMKGLARVGADLVNVHAAGGRRMMEAAIEGLDAGTPSGRMRPRCIAVTQLTSTDERMLHEELWISRPLVETVAHYAALAKESGLDGVVCSANEAAFIKERCGASFLAVTPGIRFADDAAHDQVRVVTPRKARALGSDYIVIGRSLTRAADPLRTYARLQHEWNGGERESTTPT
- soluble on expression in E. coli: soluble

Sequence: MIKIDDEAITFVVQGPVQASASRQQIAGITEQCLNSIRRFFPKSTIILSTWKGQPLDGLDYDQVLELDDPGANTVFYDGQPIKLNNNRQMYSTHMGLKAVKTPYAVKLRTDNLLTGRQFVELYERYADLPRAQNYQFLTQRVLTSSTFFISSHYGHPVHFHKSDLFDFGLTQDLLTIWSDRWIPELHFTLKPGYKARHPATEQVLCLNWISALLDEEHHIESKTCDHAGLGENFWPQFMANNLLMDCPENIGLDVTERFYKRGNLALEYDLKDWLHLNQITSIPYDKKRLYRYYRNQIGRILKKIHSFN
- soluble on expression in E. coli: not soluble

Sequence: MGSDKIHHHHHHMAEQQKTAAATAEAEAIDLGEFSGLLEKDFKVKKDDSEKLQQLVRNLALAAQSRSETTTISSNAIKSIKSLIAGIDKMLTTQVNEILHAPEVREMEGTWRGLWYLINNTETDTKLKIRVMNISKEQLADTLEDYEGQMWDQSPIFKKVYTDEYSMLGGEPIGCIIGAYEFSNHPRDVGLLRNISGVCASAHTPFIAAASPRLFRMDSWQELPNPQDLQMIVNNPAYASWQSLRESEDARYIGLTMPRVLARLPYGSETVPVKGFTFEEEVGGDHNKYVWMNAAFPMGVNINRSHKLYGWGTQIRGVENGGTVLNLPVHAFPTDDGSIAMKCPTEVAIDDRREAELAKLGLMPILHRKNTDLAAFIGAHSLQDDETRAGRLVDPDAQSNERLSANLPYLFPVSRFAHYLKAIARDKIGSFKERTDMEIWLTEWINRYVLANPAFADDKARAKRPLAAAEVQVDSVEGRPGYYNARFYLRPHYQLEGINASLRLVSELPSVKG
- soluble on expression in E. coli: not soluble
